Measurements taken from patent US20240117043A1 (SHANGHAI JUNSHI BIOSCIENCES, published 2024).

T1: recombinant human TIGIT (His Tag) (human, UniProt Q495A1 22-141)
T1 construct: Coated antigen of the ELISA; not shown: His tag
T1 sequence (looked up): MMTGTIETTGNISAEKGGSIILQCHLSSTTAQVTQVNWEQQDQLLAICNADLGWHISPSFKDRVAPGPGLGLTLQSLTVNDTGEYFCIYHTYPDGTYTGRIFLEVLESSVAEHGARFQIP

T2: recombinant human HX1 hCD112R Fc (human, UniProt Q6DKI7 41-171, limits assumed)
T2 construct: Coated antigen of the ELISA (Suzhou Junmeng); also called human CD112R; not shown: Fc part
T2 sequence (looked up): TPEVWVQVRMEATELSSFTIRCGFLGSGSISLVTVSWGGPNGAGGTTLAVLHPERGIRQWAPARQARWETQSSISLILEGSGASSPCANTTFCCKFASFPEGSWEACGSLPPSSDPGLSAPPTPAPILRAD

T3: human CD112R-mFc protein (human, UniProt Q6DKI7 41-171, limits assumed)
T3 construct: also called human CD112R protein; not shown: mouse Fc (mFc)
T3 sequence (looked up): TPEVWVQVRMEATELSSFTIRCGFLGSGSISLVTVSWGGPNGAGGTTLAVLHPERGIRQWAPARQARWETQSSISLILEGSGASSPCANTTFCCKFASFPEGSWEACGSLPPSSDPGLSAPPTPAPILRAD

T4: human TIGIT on the surface of Jurkat-hTIGIT cells (human, UniProt Q495A1 22-244)
T4 construct: whole, on cells; also called human TIGIT on the surface of Jurkat cells
T4 sequence (looked up): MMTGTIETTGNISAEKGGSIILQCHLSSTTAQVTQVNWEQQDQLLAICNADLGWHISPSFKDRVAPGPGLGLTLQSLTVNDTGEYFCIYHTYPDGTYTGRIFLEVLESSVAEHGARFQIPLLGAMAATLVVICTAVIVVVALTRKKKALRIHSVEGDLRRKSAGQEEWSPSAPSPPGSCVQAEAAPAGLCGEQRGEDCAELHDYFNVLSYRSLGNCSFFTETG


How the values were obtained:
[1] = molecular target: T1, recombinant human TIGIT (His Tag); assay: ELISA, relative binding activity, sample kept at 40 C for 0 weeks
Procedure: (§1) The antibody samples were exchanged into a pH 5.5 buffer system (20 mM histidine-histidine hydrochloride buffer, 230 mM trehalose) with the concentration of the samples controlled at about 5 mg/mL, and the buffer was aliquoted into vials at 500 μL/vial. The vials were placed in a 40° C. incubator to test stability at 0 W, 2 W and 4 W. Samples were sent for analysis according to Table 2. Stability was assessed by the following parameters: (a) the content of antibody monomers, aggregates or fragments determined by SEC-HPLC (size exclusion chromatography); (b) the molecular weight of the antibody determined by CE-SDS (sodium dodecyl sulfate capillary electrophoresis); and (c) the bioactivity of the antibody determined by an ELISA or reporter gene assay.

[2] = molecular target: T2, recombinant human HX1 hCD112R Fc; assay: as above
Procedure: as §1

[3] = molecular target: T1, recombinant human TIGIT (His Tag); assay: ELISA, relative binding activity, sample kept at 40 C for 2 weeks
Procedure: as §1

[4] = molecular target: T2, recombinant human HX1 hCD112R Fc; assay: as above
Procedure: as §1

[5] = molecular target: T1, recombinant human TIGIT (His Tag); assay: ELISA, relative binding activity, sample kept at 40 C for 4 weeks
Procedure: as §1

[6] = molecular target: T2, recombinant human HX1 hCD112R Fc; assay: as above
Procedure: as §1

human CD112R-mFc protein = molecular target: T3, human CD112R-mFc protein; assay: flow cytometry, blocking of 1 ug/mL CD112R-mFc binding to CHO hCD112 cells
Procedure: CHO hCD112 cells (Chinese hamster ovary cells, human CD112 positive) were incubated with different concentrations of the bispecific antibodies JS-1, JS-3, JS-5 and JS-9 and 1 μg/mL human CD112R-mFc protein at 4° C. for 30 min, then washed twice and incubated with a fluorescence-labeled anti-mouse IgG secondary antibody (1:200) in a dark place at 4° C. for 30 min. Finally, the cells were collected using a flow cytometer (BD Canto II), and the fluorescent antibodies bound to the cell surface were detected. Raw data were analyzed using FlowJo to obtain MFI values, antibody dose-dependent binding curves (FIG. 4) were fitted using GraphPad, and IC50 was calculated. The positive controls were hu52 (a recombinant humanized anti-CD112R monoclonal antibody) and JS-Ref (Hengrui) (an anti-TIGIT/CD112R bispecific antibody of Hengrui, expressed and purified according to the sequence of the patent WO2021180205), and the negative control was an anti-KLH-hIgG1 antibody.

[7] = molecular target: T4, human TIGIT on the surface of …; assay: flow cytometry, blocking of 1 ug/mL PVR-mFc binding to Jurkat-hTIGIT cells
Procedure: Jurkat-hTIGIT cells (human T lymphocytes, human TIGIT positive) were incubated with different concentrations of the bispecific antibodies JS-1, JS-3, JS-5 and JS-9 and 1 μg/mL human PVR-mFc protein at 4° C. for 30 min, then washed and incubated with a fluorescence-labeled anti-mouse IgG secondary antibody (1:200) in a dark place at 4° C. for 30 min. Finally, the cells were collected using a flow cytometer (BD Canto II), and the fluorescent antibodies bound to the cell surface were detected. Raw data were analyzed using FlowJo to obtain MFI values, antibody dose-dependent binding curves (FIG. 4) were fitted using GraphPad, and IC50 was calculated. The positive controls were hu20 (a recombinant humanized anti-TIGIT monoclonal antibody) and JS-Ref (Hengrui) (an anti-TIGIT/CD112R bispecific antibody of Hengrui, expressed and purified according to the sequence of the patent WO2021180205), and the negative control was an anti-KLH-hIgG4 antibody.

TIGIT binding activity Elisa (%) [1] | CD112R binding activity Elisa (%) [2] | TIGIT binding activity Elisa (%) [3] | CD112R binding activity Elisa (%) [4] | TIGIT binding activity Elisa (%) [5] | CD112R binding activity Elisa (%) [6] | IC50 (human CD112R-mFc protein) | IC50 [7] | Binder
100% | 101% | 75% | 87% | 97% | 86% | 0.915 nM | 5.42 nM | bispecific antibody JS-1 (IgG4) (bispecific antibody, Three-chain knob-into-hole format: anti-TIGIT Fab arm and anti-CD112R scFv arm, IgG4 Fc) heavy: QVQLVQSGAEVKKPGASVKVSCKTSGYAFTEYTMHWVRQAPGKGLEWMGGINPNTGGTTYNQKFQGRVTLTVDKSSSTAYMELSSLRSEDTVVYYCAKLLRLMYYFDYWGQGTLVTVSSASTKGPSVFPLAPCSRSTSESTAALGCLVKDYFPEPVTVSWNSGALTSGVHTFPAVLQSSGLYSLSSVVTVPSSSLGTKTYTCNVDHKPSNTKVDKRVESKYGPPCPPCPAPEFLGGPSVFLFPPKPKDTLMISRTPEVTCVVVDVSQEDPEVQFNWYVDGVEVHNAKTKPREEQFNSTYRVVSVLTVLHQDWLNGKEYKCKVSNKGLPSSIEKTISKAKGQPREPQVYTLPPCQEEMTKNQVSLWCLVKGFYPSDIAVEWESNGQPENNYKTTPPVLDSDGSFFLYSRLTVDKSRWQEGNVFSCSVMHEALHNHYTQKSLSLSLGK light: not shown DIVMTQSPDSLAVSLGERATINCKASQSVSNDVAWYQQKPGQPPKLLIYYVSHRFTGVPDRFSGSGSGTDFTLTISSLQAEDVAVYFCHQAYRSPWTFGCGTKLEIKGGGGSGGGGSGGGGSGGGGSEVQLVESGGGLVKPGGSLRLSCAASGFTFSSYHMSWVRQAPGKCLELVSAINSNGINTYYLDTVKGRFTISRDNAKNSLYLQMNSLRAEDTAVYYCARHEDYYGFAMDYWGQGTLVTVSSGGGGSGGGGSESKYGPPCPPCPAPEFLGGPSVFLFPPKPKDTLMISRTPEVTCVVVDVSQEDPEVQFNWYVDGVEVHNAKTKPREEQFNSTYRVVSVLTVLHQDWLNGKEYKCKVSNKGLPSSIEKTISKAKGQPREPQVCTLPPSQEEMTKNQVSLSCAVKGFYPSDIAVEWESNGQPENNYKTTPPVLDSDGSFFLVSRLTVDKSRWQEGNVFSCSVMHEALHNRFTQKSLSLSLGK
111% | 102% | 88% | 98% | 84% | 88% | 0.696 nM | 6.78 nM | bispecific antibody JS-3 (IgG4) (bispecific antibody, Two-chain scFab/scFab knob-into-hole format, IgG4 Fc) chain 1: not shown chain 2: DIVMTQSPDSLAVSLGERATINCKASQSVSNDVAWYQQKPGQPPKLLIYYVSHRFTGVPDRFSGSGSGTDFTLTISSLQAEDVAVYFCHQAYRSPWTFGQGTKLEIKRTVAAPSVFIFPPSDEQLKSGTASVVCLLNNFYPREAKVQWKVDNALQSGNSQESVTEQDSKDSTYSLSSTLTLSKADYEKHKVYACEVTHQGLSSPVTKSFNRGECSGGGSGGGSEGGGSEGGGSEGGGSEGGGSGGGSGEVQLVESGGGLVKPGGSLRLSCAASGFTFSSYHMSWVRQAPGKGLELVSAINSNGINTYYLDTVKGRFTISRDNAKNSLYLQMNSLRAEDTAVYYCARHEDYYGFAMDYWGQGTLVTVSSASTKGPSVFPLAPCSRSTSESTAALGCLVKDYFPEPVTVSWNSGALTSGVHTFPAVLQSSGLYSLSSVVTVPSSSLGTKTYTCNVDHKPSNTKVDKRVESKYGPPCPPCPAPEFLGGPSVFLFPPKPKDTLMISRTPEVTCVVVDVSQEDPEVQFNWYVDGVEVHNAKTKPREEQFNSTYRVVSVLTVLHQDWLNGKEYKCKVSNKGLPSSIEKTISKAKGQPREPQVCTLPPSQEEMTKNQVSLSCAVKGFYPSDIAVEWESNGQPENNYKTTPPVLDSDGSFFLVSRLTVDKSRWQEGNVFSCSVMHEALHNRFTQKSLSLSLGK
